Measured values reported in patent US20140322233A1 (Takeda / Millennium, published 2014).

How the values were obtained:
[1] = molecular target: T1, human GCC, full length with myc tag (293-GCC#2 cells) (human, UniProt P25092 24-1073); test: cell-based or functional assay
[2] = molecular target: T1, human GCC, full length with myc tag …; test: indirect immunofluorescence flow cytometry, 293 GCC #2 cells;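 also: cells exposed to the test antibodies for 1 h on ice before flow cytometric readout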
[3] = molecular target: T2, mouse GCC (mouse, UniProt Q3UWA6 20-433, limits assumed); test: not described (FIG. 4: ELISA on GCC orthologs)
T2 construct: Construct used for the cross-reactivity test is not described
T2 sequence (looked up): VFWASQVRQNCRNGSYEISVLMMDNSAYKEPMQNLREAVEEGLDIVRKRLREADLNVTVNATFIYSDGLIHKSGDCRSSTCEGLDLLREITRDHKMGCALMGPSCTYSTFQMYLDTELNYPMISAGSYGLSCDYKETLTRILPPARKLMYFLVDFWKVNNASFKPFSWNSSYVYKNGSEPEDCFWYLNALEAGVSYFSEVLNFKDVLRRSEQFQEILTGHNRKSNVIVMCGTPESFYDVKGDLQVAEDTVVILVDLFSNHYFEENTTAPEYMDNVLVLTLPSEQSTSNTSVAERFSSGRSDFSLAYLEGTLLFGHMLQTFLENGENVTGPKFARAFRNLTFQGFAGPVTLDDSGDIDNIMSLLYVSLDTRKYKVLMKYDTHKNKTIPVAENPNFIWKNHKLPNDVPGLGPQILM

[4] = molecular target: T3, rat GCC (rat, UniProt P23897 23-429, limits assumed); test: not described (FIG. 4: ELISA on GCC orthologs)
T3 construct: Construct used for the cross-reactivity test is not described
T3 sequence (looked up): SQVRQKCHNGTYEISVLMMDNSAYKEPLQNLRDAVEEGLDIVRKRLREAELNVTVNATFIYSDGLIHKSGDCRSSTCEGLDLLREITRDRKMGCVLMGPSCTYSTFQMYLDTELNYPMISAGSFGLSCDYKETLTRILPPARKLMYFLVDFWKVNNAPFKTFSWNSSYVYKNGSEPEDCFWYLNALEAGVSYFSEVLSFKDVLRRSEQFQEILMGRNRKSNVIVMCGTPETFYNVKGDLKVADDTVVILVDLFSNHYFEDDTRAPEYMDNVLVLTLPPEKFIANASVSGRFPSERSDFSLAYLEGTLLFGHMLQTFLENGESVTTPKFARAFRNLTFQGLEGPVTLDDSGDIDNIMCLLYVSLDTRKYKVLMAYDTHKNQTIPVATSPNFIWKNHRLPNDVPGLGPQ

T1 sequence (P25092 24-1073): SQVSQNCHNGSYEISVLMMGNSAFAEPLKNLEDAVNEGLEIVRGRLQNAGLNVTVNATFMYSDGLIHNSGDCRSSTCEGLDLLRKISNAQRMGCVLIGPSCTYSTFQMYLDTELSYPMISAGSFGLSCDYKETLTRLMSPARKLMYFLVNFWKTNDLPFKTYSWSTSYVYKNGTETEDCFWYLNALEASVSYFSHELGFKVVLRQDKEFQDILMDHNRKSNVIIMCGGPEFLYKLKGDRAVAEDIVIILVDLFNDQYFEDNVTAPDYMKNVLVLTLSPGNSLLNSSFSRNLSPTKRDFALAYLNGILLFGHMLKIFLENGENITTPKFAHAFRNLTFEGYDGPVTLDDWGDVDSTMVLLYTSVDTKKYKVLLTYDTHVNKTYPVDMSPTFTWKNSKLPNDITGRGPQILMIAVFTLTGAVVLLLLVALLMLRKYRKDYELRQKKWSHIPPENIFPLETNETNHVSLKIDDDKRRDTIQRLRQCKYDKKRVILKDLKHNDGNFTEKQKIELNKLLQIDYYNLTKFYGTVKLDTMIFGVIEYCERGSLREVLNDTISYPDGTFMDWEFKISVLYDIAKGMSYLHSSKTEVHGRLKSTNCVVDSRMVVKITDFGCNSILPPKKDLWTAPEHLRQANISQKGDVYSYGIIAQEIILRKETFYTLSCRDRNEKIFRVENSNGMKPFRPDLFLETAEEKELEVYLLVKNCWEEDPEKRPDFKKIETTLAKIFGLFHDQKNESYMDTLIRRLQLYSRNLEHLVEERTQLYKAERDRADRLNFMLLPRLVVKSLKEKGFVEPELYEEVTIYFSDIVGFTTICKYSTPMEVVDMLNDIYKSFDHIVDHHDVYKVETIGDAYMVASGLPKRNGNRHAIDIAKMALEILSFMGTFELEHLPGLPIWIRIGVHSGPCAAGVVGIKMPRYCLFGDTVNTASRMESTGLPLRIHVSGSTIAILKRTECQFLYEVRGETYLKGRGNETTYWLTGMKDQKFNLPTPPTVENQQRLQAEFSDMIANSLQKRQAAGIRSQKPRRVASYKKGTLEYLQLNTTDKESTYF

B1: mAb 5F9 (antibody, V domains shown)
VH: QVQLQQWGAGLLKPSETLSLTCAVFGGSFSGYYWSWIRQPPGKGLEWIGEINHRGNTNDNPSLKSRVTISVDTSKNQFALKLSSVTAADTAVYYCARERGYTYGNFDHWGQGTLVTVSS
VL: EIVMTQSPATLSVSPGERATLSCRASQSVSRNLAWYQQKPGQAPRLLIYGASTRATGIPARFSGSGSGTEFTLTIGSLQSEDFAVYYCQQYKTWPRTFGQGTNVEIK
notes: Human; hybridoma product is IgG2, kappa; also called 46.5F9.8.2; Prep A 5F9
- LD50, indirect cytotoxicity with DM1-conjugated mouse anti-human IgG, 293-GCC#2 cells, WST after 4 days [1]: 26 pM
- MFI at 0.001 µg/ml [2]: 500
- MFI at 0.004 µg/ml [2]: 937
- MFI at 0.016 µg/ml [2]: 2460
- MFI at 0.063 µg/ml [2]: 6620
- MFI at 0.25 µg/ml [2]: 7820
- MFI at 1 µg/ml [2]: 8030
- binding result [3]: no binding
- binding result [4]: no binding
